Measured values from patent publication US20250002564A1.

Columns and labels:
mouse FcγRI (mouse) = mouse FcγRI (mouse) (UniProt P26151)
mouse FcRn (mouse) [1] = biological target: mouse FcRn (mouse) (UniProt Q61559); assay: pH 5.6
mouse FcRn (mouse) [2] = biological target: mouse FcRn (mouse) (UniProt Q61559)

Chain of mouse FcγRI (mouse) (P26151 25-297 limits assumed): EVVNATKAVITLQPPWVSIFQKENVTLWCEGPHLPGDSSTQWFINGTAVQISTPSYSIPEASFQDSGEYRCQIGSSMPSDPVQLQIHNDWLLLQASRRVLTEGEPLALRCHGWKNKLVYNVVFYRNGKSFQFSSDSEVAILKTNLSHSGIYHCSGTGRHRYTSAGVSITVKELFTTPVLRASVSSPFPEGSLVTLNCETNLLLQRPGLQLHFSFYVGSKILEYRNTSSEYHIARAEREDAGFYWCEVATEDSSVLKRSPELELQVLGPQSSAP

| Kd (mouse FcγRI (mouse)) | koff (mouse FcγRI (mouse)) | kon (mouse FcγRI (mouse)) | Kd (mouse FcRn (mouse) [1]) | koff (mouse FcRn (mouse) [1]) | kon (mouse FcRn (mouse) [2]) | Substance |
| --- | --- | --- | --- | --- | --- | --- |
| < 1 pM | < 1e-07 s⁻¹ | 939000 M⁻¹ s⁻¹ | < 1 pM | < 1e-07 s⁻¹ | 682000 M⁻¹ s⁻¹ | mouse surrogate Multabody (HD37 IgG2a scFab and scFc on mouse apoferritin light chain), wild-type Fc |
|  |  |  | < 1 pM | < 1e-07 s⁻¹ | 2.4e+06 M⁻¹ s⁻¹ | mouse surrogate Multabody with LALAP Fc |
